Here are results for 1 molecule from patent publication US20150141617A1, “PRODUCTION AND PURIFICATION OF ACTIVE EUKARYOTIC FORMYLGLYCINEGENERATING ENZYME (FGE) VARIANTS” (Universität Bielefeld, priority 2013, published 2015).

Data set [1] concerns cysteine-containing substrate peptide. The data set can be described thus: In vitro FGE activity assay with conditioned media from CHO-FD11 cells. It counts as biochemical. The conditions noted are these: 5 mM GSH vs 2 mM DTT, pH 9.3, conditioned media. The procedure:
FGE activity was assayed using conditioned media that contained either secreted fl-FGE (obtained from CHO-FD FGE-His6 cells) or Δ72-FGE (obtained from CHO-FD Tet-On cells after transient co-transfection with pBI-FGE-HA and pIRES-Furin constructs). After expression for 48 h at 1% or 2.5% FCS containing DMEM, the medium was collected and centrifuged at 500×g for 5 min. The supernatant was analyzed by SDS-PAGE and western blotting and aliquots were directly used for activity testing.
The activity assay was performed in triplicates with three sets of conditioned media at pH 9.3 under standard conditions as described earlier (4) with some modifications; no BSA was added to the reaction mixture and 2 mM DTT or 5 mM GSH were used as reducing agents.
The inventors have recently shown that the N-terminal part of FGE (residues 34-68) is essential to activate sulfatases in vivo (12). By contrast, the N-terminal extension was not required for in vitro FGly-generating activity of purified secreted Δ72-FGE. […] To assess the physiological consequence of the N-terminal truncation by furin on the function of FGE, the inventors analyzed the FGly-generating activity of the processed and the unprocessed forms of secreted FGE in the presence of glutathione (GSH), a physiological reductant, or DTT serving as a control. […]

Another data set concerns the target T1, human PACE4 (Homo sapiens, UniProt P29122).
T1 construct: expressed in transfected cells; host or cells: CHO-FD11 Tet-On cells, transient co-transfection with pBI-FGE-HA
T1 sequence (P29122 150-969): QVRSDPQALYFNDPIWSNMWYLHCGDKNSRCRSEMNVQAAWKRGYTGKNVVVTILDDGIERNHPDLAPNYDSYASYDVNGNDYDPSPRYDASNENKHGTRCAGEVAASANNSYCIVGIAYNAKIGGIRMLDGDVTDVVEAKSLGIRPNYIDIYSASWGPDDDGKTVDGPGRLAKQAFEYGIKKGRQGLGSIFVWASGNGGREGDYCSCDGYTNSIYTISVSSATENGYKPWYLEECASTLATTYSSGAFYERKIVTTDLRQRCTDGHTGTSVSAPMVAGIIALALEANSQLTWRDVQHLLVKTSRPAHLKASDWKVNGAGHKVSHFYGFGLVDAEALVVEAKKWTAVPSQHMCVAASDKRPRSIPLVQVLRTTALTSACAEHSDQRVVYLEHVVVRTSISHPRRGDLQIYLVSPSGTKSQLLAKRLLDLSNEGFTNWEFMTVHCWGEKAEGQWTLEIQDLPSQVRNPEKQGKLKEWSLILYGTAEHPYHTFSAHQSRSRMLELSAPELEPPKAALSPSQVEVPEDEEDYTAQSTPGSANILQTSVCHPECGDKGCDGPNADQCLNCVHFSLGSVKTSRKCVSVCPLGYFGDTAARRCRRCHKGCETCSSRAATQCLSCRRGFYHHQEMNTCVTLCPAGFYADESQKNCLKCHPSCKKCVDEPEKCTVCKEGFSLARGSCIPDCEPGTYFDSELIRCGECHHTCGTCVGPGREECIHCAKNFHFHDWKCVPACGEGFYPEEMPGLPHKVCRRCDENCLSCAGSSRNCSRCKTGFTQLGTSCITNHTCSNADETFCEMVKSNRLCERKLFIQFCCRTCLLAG
The data set can be described thus: FGE processing in CHO-FD11 Tet-On cells co-expressing PACE4. The conditions noted are these: PACE4 coexpression. The class given is cell-based. The source says: The resulting constructs were verified by full-length sequencing of the coding region to exclude any PCR prone errors. Plasmids for expression of the PCs encoding human furin (Gene ID 5045), human PACE4 (=PCSK6, Gene ID 5046), murine […] (=Pcsk5, Gene ID 18552) and rat PC7 (=Pcsk7, Gene ID 29606) were kindly provided by Abdel-Majid Khatib (18). Note that the PC cDNAs were encoded as pIRES constructs coding also for enhanced green fluorescence protein (EGFP) such that EGFP expression levels serve as a measure of the expression levels of PCs.
3 μg of pSB-FGE-RGS-His6 vector was used for single transfections of HT1080, HeLa, HEK 293, BHK and CHO cells. Conditioned medium was collected after 24 h and centrifuged (500×g, 5 min) Cells were washed once with PBS, treated with trypsin (Lonza) and pelleted by 250×g to remove the medium. Cell pellets were resuspended in PBS (pH 7.4) containing protease inhibitor (PI) cocktail (Sigma) and lysed by sonication 3×10 s on ice. For co-expression of FGE with one of the PCs in CHO-FD11 Tet-On cells 2 μg of pBI-FGE-HA and 2 μg of the plasmids encoding PCs (see above) were used for transient transfection. In case of transient transfections using pBI-vector constructs the protein expression was induced by replenishing the medium with medium containing 2 μg/mL doxycycline (BD Biosciences) at 5 h post-transfection. […]

B1: FGE: human wild type full length formylglycine generating enzyme with RYSR furin cleavage motif, SEQ ID NO:2 (protein)
chain: ADEFSQEAGTGAGAGSLAGSCGCGTPQRPGAHGSSAAAHRYSREANAPGPVPGERQLAHSKMVPIPAGVFTMGTDDPQIKQDGEAPARRVTIDAFYMDAYEVSNTEFEKFVNSTGYLTEAEKFGDSFVFEGMLSEQVKTNIQQAVAAAPWWLPVKGANWRHPEGPDSTILHRPDHPVLHVSWNDAVAYCTWAGKRLPTEAEWEYSCRGGLHNRLFPWGNKLQPKGQHYANIWQGEFPVTNTGEDGFQGTAPVDAFPPNGYGLYNIVGNAWEWTSDWWTVHHSVEETLNPKGPPSGKDRVKKGGSYMCHRSYCYRYRCAARSQNTPDSSASNLGFRCAADRLPTMDSGRGSHHHHHHH
modifications: cloned matured acitve full length FGE with 6x His tag on C-terminus
For the molecule B1, in data set [1], the “FGly-generating activity (% substrate turnover) in the presence of GSH normalized to that of DTT (100%)” value was “as active with GSH as with DTT”. In addition, the “processing of FGE” value with human PACE4 was “low efficiency”.
